The target of assay [1] is human corticotropin-releasing factor 2a (CRF2a receptor) (human), Q13324. As to the kind of experiment: cell-based or functional assay.
For a further assay, the target named is T1, CRF1R receptor (UniProt P34998 24-415, limits assumed).
T1 sequence (looked up): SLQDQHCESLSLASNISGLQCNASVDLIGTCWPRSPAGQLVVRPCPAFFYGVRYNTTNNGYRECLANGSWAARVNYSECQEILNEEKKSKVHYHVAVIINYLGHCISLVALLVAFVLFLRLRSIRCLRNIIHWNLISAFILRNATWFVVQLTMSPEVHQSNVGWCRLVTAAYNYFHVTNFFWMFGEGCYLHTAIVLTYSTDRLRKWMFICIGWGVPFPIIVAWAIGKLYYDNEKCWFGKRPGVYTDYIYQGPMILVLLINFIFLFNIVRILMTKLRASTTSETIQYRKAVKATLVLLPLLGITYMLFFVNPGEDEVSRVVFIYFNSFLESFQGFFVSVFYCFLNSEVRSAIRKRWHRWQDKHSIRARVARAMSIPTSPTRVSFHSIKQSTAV
As to the kind of experiment: cell-based or functional assay.

*1 amine or outer side, *2 acyl side, *3 side chain or, on linkers, in order; H or OH if unused. Where no end group is shown, it is not given here. Side-chain parts run from the residue outwards. [ ]: non-standard residue; d: D form. The star is where a group is joined. γGlu = O=C(O)[C@H](CCC(=O)[*:2])N[*:1]; C14 diacid = O=C(O)CCCCCCCCCCCCC(=O)*; C12 diacid = O=C(O)CCCCCCCCCCC(=O)*; NMeI = CC[C@H](C)[C@H](NC)C(=O)O; Pentanoyl = CCCCC(=O)*; AEEA = NCCOCCOCC(=O)O; Aib = CC(C)(N)C(=O)O

Chain of human corticotropin-releasing factor 2a (CRF2a receptor) (human), Q13324 (Q13324 20-411): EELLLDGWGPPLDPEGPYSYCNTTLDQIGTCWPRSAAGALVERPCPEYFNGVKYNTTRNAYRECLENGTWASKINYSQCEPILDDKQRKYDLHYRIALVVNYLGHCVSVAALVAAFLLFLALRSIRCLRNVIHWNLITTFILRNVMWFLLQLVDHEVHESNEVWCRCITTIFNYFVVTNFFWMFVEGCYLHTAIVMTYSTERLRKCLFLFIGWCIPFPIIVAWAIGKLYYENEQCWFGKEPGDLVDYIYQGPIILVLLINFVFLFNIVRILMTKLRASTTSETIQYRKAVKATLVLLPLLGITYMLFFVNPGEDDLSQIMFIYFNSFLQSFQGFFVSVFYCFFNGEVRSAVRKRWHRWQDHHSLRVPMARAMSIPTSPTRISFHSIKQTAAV

B1: SEQ ID NO 178 (peptide)
peptide: [NMeI]VLSLD[dV]PIKLK([AEEA-AEEA-γGlu-C14 diacid])KILLEQEKQKKQREQAETN[Aib]QILAQV-NH2
modifications: N-terminus assumed
SMILES: CC[C@H](C)[C@H](NC)C(=O)N[C@H](C(=O)N[C@@H](CC(C)C)C(=O)N[C@@H](CO)C(=O)N[C@@H](CC(C)C)C(=O)N[C@@H](CC(=O)O)C(=O)N[C@@H](C(=O)N1CCC[C@H]1C(=O)N[C@H](C(=O)N[C@@H](CCCCN)C(=O)N[C@@H](CC(C)C)C(=O)N[C@@H](CCCCNC(=O)COCCOCCNC(=O)COCCOCCNC(=O)CC[C@H](NC(=O)CCCCCCCCCCCCC(=O)O)C(=O)O)C(=O)N[C@@H](CCCCN)C(=O)N[C@H](C(=O)N[C@@H](CC(C)C)C(=O)N[C@@H](CC(C)C)C(=O)N[C@@H](CCC(=O)O)C(=O)N[C@@H](CCC(N)=O)C(=O)N[C@@H](CCC(=O)O)C(=O)N[C@@H](CCCCN)C(=O)N[C@@H](CCC(N)=O)C(=O)N[C@@H](CCCCN)C(=O)N[C@@H](CCCCN)C(=O)N[C@@H](CCC(N)=O)C(=O)N[C@@H](CCCNC(=N)N)C(=O)N[C@@H](CCC(=O)O)C(=O)N[C@@H](CCC(N)=O)C(=O)N[C@@H](C)C(=O)N[C@@H](CCC(=O)O)C(=O)N[C@H](C(=O)N[C@@H](CC(N)=O)C(=O)NC(C)(C)C(=O)N[C@@H](CCC(N)=O)C(=O)N[C@H](C(=O)N[C@@H](CC(C)C)C(=O)N[C@@H](C)C(=O)N[C@@H](CCC(N)=O)C(=O)N[C@H](C(N)=O)C(C)C)[C@@H](C)CC)[C@@H](C)O)[C@@H](C)CC)[C@@H](C)CC)C(C)C)C(C)C
The molecule B1 gave an EC50 [nM] (cAMP) in assay [1] of 6.5 nM. Besides, the “Emax (% I)” value with CRF1R receptor is 1%.

B2: SEQ ID NO 177 (peptide)
peptide: [NMeI]VLSLD[dV]PIKLK([γGlu-C14 diacid])KILLEQEKQK[Aib]QREQAETN[Aib]QILAQV-NH2
modifications: N-terminus assumed
SMILES: CC[C@H](C)[C@H](NC)C(=O)N[C@H](C(=O)N[C@@H](CC(C)C)C(=O)N[C@@H](CO)C(=O)N[C@@H](CC(C)C)C(=O)N[C@@H](CC(=O)O)C(=O)N[C@@H](C(=O)N1CCC[C@H]1C(=O)N[C@H](C(=O)N[C@@H](CCCCN)C(=O)N[C@@H](CC(C)C)C(=O)N[C@@H](CCCCNC(=O)CC[C@H](NC(=O)CCCCCCCCCCCCC(=O)O)C(=O)O)C(=O)N[C@@H](CCCCN)C(=O)N[C@H](C(=O)N[C@@H](CC(C)C)C(=O)N[C@@H](CC(C)C)C(=O)N[C@@H](CCC(=O)O)C(=O)N[C@@H](CCC(N)=O)C(=O)N[C@@H](CCC(=O)O)C(=O)N[C@@H](CCCCN)C(=O)N[C@@H](CCC(N)=O)C(=O)N[C@@H](CCCCN)C(=O)NC(C)(C)C(=O)N[C@@H](CCC(N)=O)C(=O)N[C@@H](CCCNC(=N)N)C(=O)N[C@@H](CCC(=O)O)C(=O)N[C@@H](CCC(N)=O)C(=O)N[C@@H](C)C(=O)N[C@@H](CCC(=O)O)C(=O)N[C@H](C(=O)N[C@@H](CC(N)=O)C(=O)NC(C)(C)C(=O)N[C@@H](CCC(N)=O)C(=O)N[C@H](C(=O)N[C@@H](CC(C)C)C(=O)N[C@@H](C)C(=O)N[C@@H](CCC(N)=O)C(=O)N[C@H](C(N)=O)C(C)C)[C@@H](C)CC)[C@@H](C)O)[C@@H](C)CC)[C@@H](C)CC)C(C)C)C(C)C
In assay [1], B2 yielded an EC50 [nM] (cAMP) of 0.86 nM. Further, the “Emax (% I)” value with CRF1R receptor is 10%.

B3: SEQ ID NO 182 (peptide)
peptide: Ac-IVLSLD[dV]PIKLK([γGlu-C12 diacid])KILLEQEKQKKQREQAETN[Aib]QILAQV-NH2
SMILES: CC[C@H](C)[C@H](NC(C)=O)C(=O)N[C@H](C(=O)N[C@@H](CC(C)C)C(=O)N[C@@H](CO)C(=O)N[C@@H](CC(C)C)C(=O)N[C@@H](CC(=O)O)C(=O)N[C@@H](C(=O)N1CCC[C@H]1C(=O)N[C@H](C(=O)N[C@@H](CCCCN)C(=O)N[C@@H](CC(C)C)C(=O)N[C@@H](CCCCNC(=O)CC[C@H](NC(=O)CCCCCCCCCCC(=O)O)C(=O)O)C(=O)N[C@@H](CCCCN)C(=O)N[C@H](C(=O)N[C@@H](CC(C)C)C(=O)N[C@@H](CC(C)C)C(=O)N[C@@H](CCC(=O)O)C(=O)N[C@@H](CCC(N)=O)C(=O)N[C@@H](CCC(=O)O)C(=O)N[C@@H](CCCCN)C(=O)N[C@@H](CCC(N)=O)C(=O)N[C@@H](CCCCN)C(=O)N[C@@H](CCCCN)C(=O)N[C@@H](CCC(N)=O)C(=O)N[C@@H](CCCNC(=N)N)C(=O)N[C@@H](CCC(=O)O)C(=O)N[C@@H](CCC(N)=O)C(=O)N[C@@H](C)C(=O)N[C@@H](CCC(=O)O)C(=O)N[C@H](C(=O)N[C@@H](CC(N)=O)C(=O)NC(C)(C)C(=O)N[C@@H](CCC(N)=O)C(=O)N[C@H](C(=O)N[C@@H](CC(C)C)C(=O)N[C@@H](C)C(=O)N[C@@H](CCC(N)=O)C(=O)N[C@H](C(N)=O)C(C)C)[C@@H](C)CC)[C@@H](C)O)[C@@H](C)CC)[C@@H](C)CC)C(C)C)C(C)C
In assay [1], B3 displayed an EC50 [nM] (cAMP) of 1.88 nM. In the assay with CRF1R receptor, the “Emax (% I)” value amounted to 1%.

B4: SEQ ID NO 179 (peptide)
peptide: [NMeI]VLSLD[dV]PIKLK([AEEA-AEEA-γGlu-γGlu-C14 diacid])KILLEQEKQKKQREQAETN[Aib]QILAQV-NH2
modifications: N-terminus assumed
SMILES: CC[C@H](C)[C@H](NC)C(=O)N[C@H](C(=O)N[C@@H](CC(C)C)C(=O)N[C@@H](CO)C(=O)N[C@@H](CC(C)C)C(=O)N[C@@H](CC(=O)O)C(=O)N[C@@H](C(=O)N1CCC[C@H]1C(=O)N[C@H](C(=O)N[C@@H](CCCCN)C(=O)N[C@@H](CC(C)C)C(=O)N[C@@H](CCCCNC(=O)COCCOCCNC(=O)COCCOCCNC(=O)CC[C@H](NC(=O)CC[C@H](NC(=O)CCCCCCCCCCCCC(=O)O)C(=O)O)C(=O)O)C(=O)N[C@@H](CCCCN)C(=O)N[C@H](C(=O)N[C@@H](CC(C)C)C(=O)N[C@@H](CC(C)C)C(=O)N[C@@H](CCC(=O)O)C(=O)N[C@@H](CCC(N)=O)C(=O)N[C@@H](CCC(=O)O)C(=O)N[C@@H](CCCCN)C(=O)N[C@@H](CCC(N)=O)C(=O)N[C@@H](CCCCN)C(=O)N[C@@H](CCCCN)C(=O)N[C@@H](CCC(N)=O)C(=O)N[C@@H](CCCNC(=N)N)C(=O)N[C@@H](CCC(=O)O)C(=O)N[C@@H](CCC(N)=O)C(=O)N[C@@H](C)C(=O)N[C@@H](CCC(=O)O)C(=O)N[C@H](C(=O)N[C@@H](CC(N)=O)C(=O)NC(C)(C)C(=O)N[C@@H](CCC(N)=O)C(=O)N[C@H](C(=O)N[C@@H](CC(C)C)C(=O)N[C@@H](C)C(=O)N[C@@H](CCC(N)=O)C(=O)N[C@H](C(N)=O)C(C)C)[C@@H](C)CC)[C@@H](C)O)[C@@H](C)CC)[C@@H](C)CC)C(C)C)C(C)C
For the molecule B4, the EC50 [nM] (cAMP) in assay [1] came out at 15.6 nM. Besides, in the assay with CRF1R receptor, the “Emax (% I)” value is -4%.

B5: SEQ ID NO 180 (peptide)
peptide: Pentanoyl-VLSLD[dV]PIKLK([AEEA-AEEA-γGlu-C14 diacid])KILLEQEKQKKQREQAETN[Aib]QILAQV-NH2
SMILES: CCCCC(=O)N[C@H](C(=O)N[C@@H](CC(C)C)C(=O)N[C@@H](CO)C(=O)N[C@@H](CC(C)C)C(=O)N[C@@H](CC(=O)O)C(=O)N[C@@H](C(=O)N1CCC[C@H]1C(=O)N[C@H](C(=O)N[C@@H](CCCCN)C(=O)N[C@@H](CC(C)C)C(=O)N[C@@H](CCCCNC(=O)COCCOCCNC(=O)COCCOCCNC(=O)CC[C@H](NC(=O)CCCCCCCCCCCCC(=O)O)C(=O)O)C(=O)N[C@@H](CCCCN)C(=O)N[C@H](C(=O)N[C@@H](CC(C)C)C(=O)N[C@@H](CC(C)C)C(=O)N[C@@H](CCC(=O)O)C(=O)N[C@@H](CCC(N)=O)C(=O)N[C@@H](CCC(=O)O)C(=O)N[C@@H](CCCCN)C(=O)N[C@@H](CCC(N)=O)C(=O)N[C@@H](CCCCN)C(=O)N[C@@H](CCCCN)C(=O)N[C@@H](CCC(N)=O)C(=O)N[C@@H](CCCNC(=N)N)C(=O)N[C@@H](CCC(=O)O)C(=O)N[C@@H](CCC(N)=O)C(=O)N[C@@H](C)C(=O)N[C@@H](CCC(=O)O)C(=O)N[C@H](C(=O)N[C@@H](CC(N)=O)C(=O)NC(C)(C)C(=O)N[C@@H](CCC(N)=O)C(=O)N[C@H](C(=O)N[C@@H](CC(C)C)C(=O)N[C@@H](C)C(=O)N[C@@H](CCC(N)=O)C(=O)N[C@H](C(N)=O)C(C)C)[C@@H](C)CC)[C@@H](C)O)[C@@H](C)CC)[C@@H](C)CC)C(C)C)C(C)C
For B5, the EC50 [nM] (cAMP) in assay [1] worked out at 10.7 nM. For the same molecule, the “Emax (% I)” value in the assay with CRF1R receptor was 2%.

B6: SEQ ID NO 181 (peptide)
peptide: Pentanoyl-VLSLD[dV]PIKLK([AEEA-AEEA-γGlu-γGlu-C14 diacid])KILLEQEKQKKQREQAETN[Aib]QILAQV-NH2
SMILES: CCCCC(=O)N[C@H](C(=O)N[C@@H](CC(C)C)C(=O)N[C@@H](CO)C(=O)N[C@@H](CC(C)C)C(=O)N[C@@H](CC(=O)O)C(=O)N[C@@H](C(=O)N1CCC[C@H]1C(=O)N[C@H](C(=O)N[C@@H](CCCCN)C(=O)N[C@@H](CC(C)C)C(=O)N[C@@H](CCCCNC(=O)COCCOCCNC(=O)COCCOCCNC(=O)CC[C@H](NC(=O)CC[C@H](NC(=O)CCCCCCCCCCCCC(=O)O)C(=O)O)C(=O)O)C(=O)N[C@@H](CCCCN)C(=O)N[C@H](C(=O)N[C@@H](CC(C)C)C(=O)N[C@@H](CC(C)C)C(=O)N[C@@H](CCC(=O)O)C(=O)N[C@@H](CCC(N)=O)C(=O)N[C@@H](CCC(=O)O)C(=O)N[C@@H](CCCCN)C(=O)N[C@@H](CCC(N)=O)C(=O)N[C@@H](CCCCN)C(=O)N[C@@H](CCCCN)C(=O)N[C@@H](CCC(N)=O)C(=O)N[C@@H](CCCNC(=N)N)C(=O)N[C@@H](CCC(=O)O)C(=O)N[C@@H](CCC(N)=O)C(=O)N[C@@H](C)C(=O)N[C@@H](CCC(=O)O)C(=O)N[C@H](C(=O)N[C@@H](CC(N)=O)C(=O)NC(C)(C)C(=O)N[C@@H](CCC(N)=O)C(=O)N[C@H](C(=O)N[C@@H](CC(C)C)C(=O)N[C@@H](C)C(=O)N[C@@H](CCC(N)=O)C(=O)N[C@H](C(N)=O)C(C)C)[C@@H](C)CC)[C@@H](C)O)[C@@H](C)CC)[C@@H](C)CC)C(C)C)C(C)C
As for B6, the EC50 [nM] (cAMP) in assay [1] was found to be 24.7 nM. Further, in the assay with CRF1R receptor, the “Emax (% I)” value was 9%.

The values above are taken from patent US20260001928A1 (CORTERIA PHARMACEUTICALS, priority 2022, published 2026).
